First the molecules themselves.
B1: Transducer of Cdc42-dependent actin assembly protein 2 homolog (Caenorhabditis elegans), Q9XUS7 (parent)
chain: MIPVSRFFTVQDPSNALLSYTQKGIDFFEKLGQFSKEKAAIEEEYSTKLRSLAKKYAKKSEEDDEILKSVSYTSSFNSFLQQLDQIATRHQTSAEHIRGGVVSYVASKTCQMRSSRKNAINDLKTINDKLEDQINEMCKSGKCYLKSFKDAENSYQKFYKADKNLEISRLELEKARALANARNEACELAKQDYSALVRKTNAEQKRYHVELLPVIFARLKAVDKECIADMRQVLQKIVSFDDSLADSTEECRKIMQREVGKIDAEGDAQLVLKSVEATIEQPAPFEIEDLGDPKNCDSRTNDSADGSGGKLLKSSPSKNRIIRNFLGILKEKEADEKPEASNNDQLMYTDKSKPAHVRLSCLRSKIRDMEKQLEQAIQGREGITRLQQAYYTNPQHGNPSACTEPLISYAKKIEKLKMDIHNLKEFYAMLEMSVEEGQERSFGGRDTPDTTRSMSGSSTNQSSSKTIEDVLSGEAGNSSSADDSSKNILRQLFTTPKRLISSPKTSKSSTPTPLRRRAEISSPKILRSSFSGAIRKSLSTPDSVKVETAVTVTALFEFAKSSAETMSIEQGEILLVLEHDHGDGWTRTKNCRKHNEESGFVPTSYLQFPQ

The variants in this test derive from B1. Conditions: with cdc42_caeel cdc-42, Q05062.
Chain of cdc42_caeel cdc-42, Q05062 (Q05062 whole entry): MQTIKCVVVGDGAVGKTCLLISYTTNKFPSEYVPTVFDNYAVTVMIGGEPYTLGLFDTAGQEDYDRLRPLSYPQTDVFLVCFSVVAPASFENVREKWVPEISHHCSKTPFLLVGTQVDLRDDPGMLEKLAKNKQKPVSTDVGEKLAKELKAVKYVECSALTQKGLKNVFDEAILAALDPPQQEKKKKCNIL
On to I413S, for which the “effect of a mutation on the interaction” value was “disrupting interaction strength”.

(Values after IntAct's records for PubMed 25775511.)
